{
  "source": "patent US20220105163A1",
  "key": {"[1]": {"molecular_target": "Recombinant human IL-6 (human) (UniProt P05231)", "sequence (P05231 30-212 limits assumed)": "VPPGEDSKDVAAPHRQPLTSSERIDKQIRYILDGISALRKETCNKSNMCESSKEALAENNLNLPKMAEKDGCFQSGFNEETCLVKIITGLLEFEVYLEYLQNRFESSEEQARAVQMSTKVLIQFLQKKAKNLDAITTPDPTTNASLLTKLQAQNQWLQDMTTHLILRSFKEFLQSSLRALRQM", "experiment": "cell-based or functional assay"}, "[2]": {"molecular_target": "IL-6 receptor on TF-1 cells (human) (UniProt P08887)", "sequence (P08887 20-468)": "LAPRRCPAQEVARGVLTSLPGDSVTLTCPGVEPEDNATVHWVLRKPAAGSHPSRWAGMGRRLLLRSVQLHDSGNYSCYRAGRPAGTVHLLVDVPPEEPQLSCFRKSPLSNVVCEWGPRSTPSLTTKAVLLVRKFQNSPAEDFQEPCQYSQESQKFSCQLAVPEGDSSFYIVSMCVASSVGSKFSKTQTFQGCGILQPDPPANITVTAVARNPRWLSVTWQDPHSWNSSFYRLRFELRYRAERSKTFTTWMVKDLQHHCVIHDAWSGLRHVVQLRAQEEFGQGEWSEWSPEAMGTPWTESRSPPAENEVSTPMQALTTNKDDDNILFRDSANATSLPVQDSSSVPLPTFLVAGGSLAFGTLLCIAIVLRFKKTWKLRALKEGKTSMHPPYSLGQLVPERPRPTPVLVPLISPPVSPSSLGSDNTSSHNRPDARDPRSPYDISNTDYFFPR", "experiment": "cell-based or functional assay"}},
  "data": [
    {"substance": "Non GP IgG (antibody)", "values": [
      {"measurement": "IC50 (µg/mL), IL-6 induced TF-1 proliferation", "setting": "[1]", "value": "> 100", "unit": "µg/mL"}
    ]},
    {"substance": "Tocilizumab (antibody)", "values": [
      {"measurement": "IC50 (µg/mL), IL-6 induced TF-1 proliferation", "setting": "[2]", "value": 0.365, "unit": "µg/mL"}
    ]}
  ]
}
